Data set [1] concerns the molecule itself. The data set is described as follows: bead aggregation assay, 1.25 mM CaCl2. The protocol:
Dynabeads (Dynal Biotech) coupled to Protein A were coated with N-cadherin Fc at 1 μg/ml in calcium and magnesium-free HBSS containing 0.1% Tween 20, 1% FCS and 4 mM EDTA. Eppendorf tubes containing beads and fusion protein were rotated slowly for 1 hour at room temperature to allow binding to take place. The beads were then washed in the above assay buffer lacking EDTA and then resuspended in the same buffer supplemented with 1.25 mM CaCl₂. Beads were allowed to aggregate in a volume of 100 μl for 2 hours at 37° C. by slow rotation, in an eppendorf tube, at approximately 20 rpm. Aggregation was then assessed by light microscopy.
In the experiments described so far in this example, disruption of the salt bridge prevented intramolecular docking of Trp 2 in one or both components of the dimer. In an alternative strategy to prevent intramolecular docking, we removed Trp2 by introducing the mutation W2G or blocked the hydrophobic acceptor pocket with an isoleucine side chain projecting into the cavity using the mutation A801. N-cadherin Fc fusion proteins with these mutations were then tested against our panel of K562 transfectants (FIG. 17a). In keeping with the explanation given in FIG. 5, the W2G mutant acted as a strand acceptor and therefore adhered strongly to the E89A mutant whereas the A80I mutant was a strand donor and adhered to the GG extension mutant. […] In contrast, beads coated with the W2G or A801 mutants and tested separately clustered in twos and threes, whereas beads coated with the negative control mutant, D134A, were entirely monodisperse. To test whether all five extracellular domains of N-cadherin (EC1-EC5) are necessary for the strong adhesive interaction between the complementary mutants, we compared the adhesive activity of the W2G mutant prepared as a full length (EC1-EC5) Fc fusion protein with that of the same mutant prepared as a truncated construct containing only cadherin domains EC1 and EC2.

For data set [2], the target named is T1, mouse N-cadherin with an uncleaved prodomain expressed on L cells (furin site RQKR replaced with Factor Xa … (mouse, UniProt P15116 160-906)).
T1 construct: whole, on cells; Prodomain is still attached in the assay; also called unprocessed N-cadherin; L cell transfectants expressing unprocessed N-cadherin
T1 sequence (looked up): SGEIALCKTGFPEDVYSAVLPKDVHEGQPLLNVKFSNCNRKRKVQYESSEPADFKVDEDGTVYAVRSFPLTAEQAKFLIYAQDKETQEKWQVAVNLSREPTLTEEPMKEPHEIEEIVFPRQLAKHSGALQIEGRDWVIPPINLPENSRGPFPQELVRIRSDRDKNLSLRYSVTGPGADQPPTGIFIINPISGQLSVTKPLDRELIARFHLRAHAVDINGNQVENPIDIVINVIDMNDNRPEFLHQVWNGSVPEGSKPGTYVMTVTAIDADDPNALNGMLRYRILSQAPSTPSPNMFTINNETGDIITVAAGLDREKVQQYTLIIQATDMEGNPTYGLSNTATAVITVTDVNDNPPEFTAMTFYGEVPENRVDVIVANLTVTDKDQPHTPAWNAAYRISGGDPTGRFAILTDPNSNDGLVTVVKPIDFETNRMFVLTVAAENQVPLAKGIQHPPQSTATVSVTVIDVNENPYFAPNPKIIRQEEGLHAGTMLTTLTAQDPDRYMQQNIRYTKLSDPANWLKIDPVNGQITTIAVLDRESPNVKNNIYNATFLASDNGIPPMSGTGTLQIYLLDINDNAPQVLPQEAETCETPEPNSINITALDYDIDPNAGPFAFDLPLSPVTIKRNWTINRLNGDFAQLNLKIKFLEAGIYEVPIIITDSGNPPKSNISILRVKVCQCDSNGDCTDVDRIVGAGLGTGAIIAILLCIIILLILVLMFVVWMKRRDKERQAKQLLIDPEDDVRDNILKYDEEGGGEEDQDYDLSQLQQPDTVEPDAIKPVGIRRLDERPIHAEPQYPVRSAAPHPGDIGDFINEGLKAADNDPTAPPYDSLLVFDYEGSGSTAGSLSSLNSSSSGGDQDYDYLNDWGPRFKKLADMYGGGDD
The data set is described as follows: adhesion of L cell transfectants to coated N-cadherin Fc. The protocol: Adhesion tests were conducted substantially as described in Example 1. Briefly, K562 Cells or L cells transfected with wild type or mutant N-cadherin were allowed to settle for 45 minutes at 37° C. onto N-cadherin Fc fusion proteins coated at 1 μg/ml to a 96 well plate. Non-adherent cells were then washed off and residual adherent cells were quantitated by measuring acid phosphatase activity. Assays were conducted in quadruplicate and results are expressed as % cells adhering +/−SEM.
L cells expressing mouse N-cadherin with an uncleaved prodomain (see Koch et al., 2004) were obtained from Dr Weisong Shan (Montreal Neurological Institute). The normal furin cleavage site, RQKR, had been replaced with a Factor Xa site, IEGR, to give the correct N-terminus after digestion. […] L cells suspended in HBSS containing 0.1% BSA were treated with 0.01% trypsin (Sigma, Type XI) in the presence of 2 mM Ca²⁺ for 10 minutes at 37° C. and the digestion was then quenched with soyabean trypsin inhibitor, 0.5 mg per ml (Sigma, Type I-S). Cells were then washed and tested for adhesion to N-cadherin Fc-fusion protein. To check for complete removal of the prodomain, the cells were lysed in SDS sample buffer and the cadherin analysed by SDS PAGE under reducing conditions on a 4-12% gradient gel. […]

B1: chicken N-cadherin-Fc fusion protein with the mutation D134A, dimeric (Fc fusion, UniProt P10288 165-728, looked up)
chain: DWVIPPINLPENSRGPFPQELVRIRSDRDKSLSLRYSVTGPGADQPPTGIFIINPISGQLSVTKPLDREQIASFHLRAHAVDVNGNQVENPIDIVINVIDMNDNRPEFLHQVWNGTVPEGSKPGTYVMTVTAIAADDPNAQNGMLRYRILSQAPSSPSPNMFTINNETGDIITVAAGLDREKVQQYTLIIQATDMEGNPTYGLSNTATAVITVTDVNDNPPEFTAMTFYGEVPENRVDVIVANLTVTDKDQPHTPAWNARYQMTGGDPTGQFTILTDPNSNDGLVTVVKPIDFETNRMFVLTVAAENQVPLAKGIQHPPQSTATVSITVIDVNESPYFVPNPKLVRQEEGLLAGSMLTTFTARDPDRYMQQTSLRYSKLSDPANWLKIDPVNGQITTTAVLDRESIYVQNNMYNATFLASDNGIPPMSGTGTLQIYLLDINDNAPQVNPKEATTCETLQPNAINITAVDPDIDPNAGPFAFELPDSPPSIKRNWTIVRISGDHAQLSLRIRFLEAGIYDVPIVITDSGNPHASSTSVLKVKVCQCDINGDCTDVDRIVGAGLGT
notes: extracellular domain; also called D134A mutant; N-cadherin Fc mutant D134A; not shown: hinge region, CH2 and CH3 domains of human IgG1 heavy chain (vector pIgSig)
Regarding B1, the binding result is given as “no binding (tested: beads coated at 1 µg/ml)” in data set [1] and “no binding (tested: Fc fusion protein coated at 1 µg/ml)” in data set [2].

B2: wild type chicken N-cadherin-Fc fusion protein, dimeric (linked by disulphide bonds at the Ig hinge region) (Fc fusion, UniProt P10288 165-729, looked up)
chain: DWVIPPINLPENSRGPFPQELVRIRSDRDKSLSLRYSVTGPGADQPPTGIFIINPISGQLSVTKPLDREQIASFHLRAHAVDVNGNQVENPIDIVINVIDMNDNRPEFLHQVWNGTVPEGSKPGTYVMTVTAIDADDPNAQNGMLRYRILSQAPSSPSPNMFTINNETGDIITVAAGLDREKVQQYTLIIQATDMEGNPTYGLSNTATAVITVTDVNDNPPEFTAMTFYGEVPENRVDVIVANLTVTDKDQPHTPAWNARYQMTGGDPTGQFTILTDPNSNDGLVTVVKPIDFETNRMFVLTVAAENQVPLAKGIQHPPQSTATVSITVIDVNESPYFVPNPKLVRQEEGLLAGSMLTTFTARDPDRYMQQTSLRYSKLSDPANWLKIDPVNGQITTTAVLDRESIYVQNNMYNATFLASDNGIPPMSGTGTLQIYLLDINDNAPQVNPKEATTCETLQPNAINITAVDPDIDPNAGPFAFELPDSPPSIKRNWTIVRISGDHAQLSLRIRFLEAGIYDVPIVITDSGNPHASSTSVLKVKVCQCDINGDCTDVDRIVGAGLGTG
notes: extracellular domain; also called dimeric N-cadherin-Fc; wild type N-cadherin; not shown: hinge region, CH2 and CH3 domains of human IgG1 heavy chain (vector pIgSig)
For B2, the binding result is recorded as “binds” in data set [1] and “no binding (tested: Fc fusion protein coated at 1 µg/ml)” in data set [2].

Values taken from US20080274950A1 (BABRAHAM INSTITUTE, published 2008).
